Test results reported in patent US20170182124A1, “FGF21 Derivatives and Uses Thereof” (Novo Nordisk A/S, priority 2014, published 2017).
Where two headings read alike, the source gives them in different places.

B1: Ala[Gln121, Leu168, Cys175]FGF21 (protein)
chain: HPIPDSSPLLQFGGQVRQRYLYTDDAQQTEAHLEIREDGTVGGAADQSPESLLQLKALKPGVIQILGVKTSRFLCQRPDGALYGSLHFDPEACSFRELLLEDGYNVYQSEAHGLPLHLPGQKSPHRDPAPRGPARFLPLPGLPPALPEPPGILAPQPPDVGSSDPLSLVGPSQGCSPSYAS
notes: FGF21 analogue
B2: 18-[[(1S)-4-[2-[2-[2-[2-[2-[2-(2-acetamidoethylamino)-2-oxo-ethoxy]ethoxy]ethylamino]-2-oxo-ethoxy]ethoxy]ethylamino]-1-carboxy-4-oxo-butyl]amino]-18-oxo-octadecanoic … (protein)
chain: HPIPDSSPLLQFGGQVRQRYLYTDDAQQTEAHLEIREDGTVGGAADQSPESLLQLKALKPGVIQILGVKTSRFLCQRPDGALYGSLHFDPEACSFRELLLEDGYNVYQSEAHGLPLHLPGQKSPHRDPAPRGPARFLPLPGLPPALPEPPGILAPQPPDVGSSDPLSLVGPSQCRSPSYAS
B3: S{Beta-173}-[2-[2-[[2-[2-[2-[[2-[2-[2-[[(4S)-4-carboxy-4-(15-carboxypentadecanoyl-amino)butanoyl]amino]ethoxy]ethoxy]acetyl]amino]ethoxy]ethoxy]acetyl]amino]-ethylamino]-2-oxoethyl]-Ala[Gln121,Leu168, … (protein)
chain: HPIPDSSPLLQFGGQVRQRYLYTDDAQQTEAHLEIREDGTVGGAADQSPESLLQLKALKPGVIQILGVKTSRFLCQRPDGALYGSLHFDPEACSFRELLLEDGYNVYQSEAHGLPLHLPGQKSPHRDPAPRGPARFLPLPGLPPALPEPPGILAPQPPDVGSSDPLSLVGPSCGRSPSYAS
B4: S{Beta-174}-[2-[2-[[2-[2-[2-[[2-[2-[2-[[(4S)-4-carboxy-4-(13-carboxytridecanoyl-amino)butanoyl]amino]ethoxy]ethoxy]acetyl]amino]ethoxy]ethoxy]acetyl]amino]-ethylamino]-2-oxoethyl]-Ala[Gln121,Leu168,Cy … (protein)
chain: HPIPDSSPLLQFGGQVRQRYLYTDDAQQTEAHLEIREDGTVGGAADQSPESLLQLKALKPGVIQILGVKTSRFLCQRPDGALYGSLHFDPEACSFRELLLEDGYNVYQSEAHGLPLHLPGQKSPHRDPAPRGPARFLPLPGLPPALPEPPGILAPQPPDVGSSDPLSLVGPSQCRSPSYAS
B5: 18-[[(1S)-4-[2-[2-[2-[2-[2-[2-(2-acetamidoethylamino)-2-oxo-ethoxy]ethoxy]ethylamino]-2-oxo-ethoxy]ethoxy]ethylamino]-1-carboxy-4-oxo-butyl]amino]-18-oxo-octadecanoic … (protein)
chain: HPIPDSSPLLQFGGQVRQRYLYTDDAQQTEAHLEIREDGTVGGAADQSPESLLQLKALKPGVIQILGVKTSRFLCQRPDGALYGSLHFDPEACSFRELLLEDGYNVYQSEAHGLPLHLPGQKSPHRDPAPRGPARFLPLPGLPPALPEPPGILAPQPPDVGSSDPLSLVCPSQGRSPSYAS
B6: Ala[Gln121, Cys168]FGF21 (protein)
chain: AHPIPDSSPLLQFGGQVRQRYLYTDDAQQTEAHLEIREDGTVGGAADQSPESLLQLKALKPGVIQILGVKTSRFLCQRPDGALYGSLHFDPEACSFRELLLEDGYNVYQSEAHGLPLHLPGQKSPHRDPAPRGPARFLPLPGLPPALPEPPGILAPQPPDVGSSDPLSCVGPSQGRSPSYAS
modifications: N-terminal Ala
B7: Ala[Gln121, Leu168, Cys173]FGF21 (protein)
chain: AHPIPDSSPLLQFGGQVRQRYLYTDDAQQTEAHLEIREDGTVGGAADQSPESLLQLKALKPGVIQILGVKTSRFLCQRPDGALYGSLHFDPEACSFRELLLEDGYNVYQSEAHGLPLHLPGQKSPHRDPAPRGPARFLPLPGLPPALPEPPGILAPQPPDVGSSDPLSLVGPSQCRSPSYAS
modifications: N-terminal Ala
notes: FGF21 analogue
B8: Ala[Gln121, Leu168, Cys170]FGF21 (protein)
chain: AHPIPDSSPLLQFGGQVRQRYLYTDDAQQTEAHLEIREDGTVGGAADQSPESLLQLKALKPGVIQILGVKTSRFLCQRPDGALYGSLHFDPEACSFRELLLEDGYNVYQSEAHGLPLHLPGQKSPHRDPAPRGPARFLPLPGLPPALPEPPGILAPQPPDVGSSDPLSLVCPSQGRSPSYAS
modifications: N-terminal Ala
B9: Ala[Gln121, Leu168, Cys169]FGF21 (protein)
chain: AHPIPDSSPLLQFGGQVRQRYLYTDDAQQTEAHLEIREDGTVGGAADQSPESLLQLKALKPGVIQILGVKTSRFLCQRPDGALYGSLHFDPEACSFRELLLEDGYNVYQSEAHGLPLHLPGQKSPHRDPAPRGPARFLPLPGLPPALPEPPGILAPQPPDVGSSDPLSLCGPSQGRSPSYAS
modifications: N-terminal Ala
B10: Ala[Gln121, Leu168, Cys174]FGF21 (protein)
chain: AHPIPDSSPLLQFGGQVRQRYLYTDDAQQTEAHLEIREDGTVGGAADQSPESLLQLKALKPGVIQILGVKTSRFLCQRPDGALYGSLHFDPEACSFRELLLEDGYNVYQSEAHGLPLHLPGQKSPHRDPAPRGPARFLPLPGLPPALPEPPGILAPQPPDVGSSDPLSLVGPSQGCSPSYAS
modifications: N-terminal Ala
notes: FGF21 analogue
B11: Ala[Gln121, Leu168, Cys172]FGF21 (protein)
chain: AHPIPDSSPLLQFGGQVRQRYLYTDDAQQTEAHLEIREDGTVGGAADQSPESLLQLKALKPGVIQILGVKTSRFLCQRPDGALYGSLHFDPEACSFRELLLEDGYNVYQSEAHGLPLHLPGQKSPHRDPAPRGPARFLPLPGLPPALPEPPGILAPQPPDVGSSDPLSLVGPSCGRSPSYAS
modifications: N-terminal Ala
notes: FGF21 analogue
B12: Ala[Gln121, Cys167, Leu168,]FGF21 (protein)
chain: AHPIPDSSPLLQFGGQVRQRYLYTDDAQQTEAHLEIREDGTVGGAADQSPESLLQLKALKPGVIQILGVKTSRFLCQRPDGALYGSLHFDPEACSFRELLLEDGYNVYQSEAHGLPLHLPGQKSPHRDPAPRGPARFLPLPGLPPALPEPPGILAPQPPDVGSSDPLCLVGPSQGRSPSYAS
modifications: N-terminal Ala
B13: Ala[Gln121, Leu168, Cys177]FGF21 (protein)
chain: AHPIPDSSPLLQFGGQVRQRYLYTDDAQQTEAHLEIREDGTVGGAADQSPESLLQLKALKPGVIQILGVKTSRFLCQRPDGALYGSLHFDPEACSFRELLLEDGYNVYQSEAHGLPLHLPGQKSPHRDPAPRGPARFLPLPGLPPALPEPPGILAPQPPDVGSSDPLSLVGPSQGRSCSYAS
modifications: N-terminal Ala
B14: Ala[Gln121, Leu168, Cys171]FGF21 (protein)
chain: AHPIPDSSPLLQFGGQVRQRYLYTDDAQQTEAHLEIREDGTVGGAADQSPESLLQLKALKPGVIQILGVKTSRFLCQRPDGALYGSLHFDPEACSFRELLLEDGYNVYQSEAHGLPLHLPGQKSPHRDPAPRGPARFLPLPGLPPALPEPPGILAPQPPDVGSSDPLSLVGPCQGRSPSYAS
modifications: N-terminal Ala
notes: FGF21 analogue

Biological target: FGF receptor/BKL complex
Test: FGF receptor potency in an Erk phosphorylation assay in HEK293 overexpressing human BKL
Type: cell-based
Settings: for EC50: HEK293/BKL cells, pERK after 12 minutes
Protocol: In order to test the binding of the FGF21 derivatives to albumin, the assay was performed in the absence of serum albumin as well as in the presence of human serum albumin (HSA) (0.1% final assay concentration). An increase in EC50 value (decrease in potency) in the presence of serum albumin for FGF21 derivatives would indicate binding to serum albumin and represents a method to predict a protracted pharmacokinetic profile of the test substance in animal models. MetFGF21 (SEQ ID NO:2) is included for reference.
HEK293 cells endogenously express several FGF receptors, including FGFR1c, FGFR3c and FGFR4. These cells are unresponsive to FGF21 until transfected with the co-receptor beta-klotho (BKL). Activation of the FGF receptor/BKL complex leads to activation of the MAPK/ERK signalling pathway and phosphorylation of ERK. The level of phosphorylated ERK (pERK) at a given time point increases with increasing concentrations of FGF21. As described below the level of pERK is measured after 12 minutes of stimulation with a range of FGF21 analogue concentrations.
The HEK293/beta-klotho cells are seeded with 30.000 cells/well in 96 well plates in DMEM (BioWhittaker #BE12-604F/U1), supplemented with 10% FCS (Gibco #16140-071), 1% penicillin/streptomycin (Gibco #15140), 100 µg/ml Hygromycin B, (Calbiochem, # 400052). Two days later and 2 hours before addition of compound the cell medium is exchanged with 100 ∞l basal medium (DMEM (BioWhittaker #BE12-604F/U1)). The FGF21 analogues are diluted in assay medium (DMEM (BioWhittaker #BE12-604F/U1) supplemented with 0.02% Tween20), warmed to 37° C., added to the cells (100 μl) and incubated at 37° C. for 12 minutes. The FGF21 derivatives were also tested in the presence of 0.1% HSA (Sigma—A1887). All medium is quickly removed and 50 μl lysis buffer is added pr. well. The plate is shaken for 5 minutes and the lysate is ready for measurement of pERK. pERK is measured in 384 well plates with the AlphaScreen SureFire kit (PerkinElmer #TGRES10K). This kit is based on ERK and pERK specific antibodies coupled to donor and acceptor beads. The presence of pERK will bring acceptor and donor beads in close proximity and a signal is generated that is read on EnVision. The data are analysed using GraphPad Prism and the potency of the FGF21 proteins is described as absolute EC50 value.

[1] = presence of 0.1% HSA, read-out: EC50 (0.1% HSA)

FGF receptor/BKL complex, sequence (Q86Z14 whole entry, one chain of several): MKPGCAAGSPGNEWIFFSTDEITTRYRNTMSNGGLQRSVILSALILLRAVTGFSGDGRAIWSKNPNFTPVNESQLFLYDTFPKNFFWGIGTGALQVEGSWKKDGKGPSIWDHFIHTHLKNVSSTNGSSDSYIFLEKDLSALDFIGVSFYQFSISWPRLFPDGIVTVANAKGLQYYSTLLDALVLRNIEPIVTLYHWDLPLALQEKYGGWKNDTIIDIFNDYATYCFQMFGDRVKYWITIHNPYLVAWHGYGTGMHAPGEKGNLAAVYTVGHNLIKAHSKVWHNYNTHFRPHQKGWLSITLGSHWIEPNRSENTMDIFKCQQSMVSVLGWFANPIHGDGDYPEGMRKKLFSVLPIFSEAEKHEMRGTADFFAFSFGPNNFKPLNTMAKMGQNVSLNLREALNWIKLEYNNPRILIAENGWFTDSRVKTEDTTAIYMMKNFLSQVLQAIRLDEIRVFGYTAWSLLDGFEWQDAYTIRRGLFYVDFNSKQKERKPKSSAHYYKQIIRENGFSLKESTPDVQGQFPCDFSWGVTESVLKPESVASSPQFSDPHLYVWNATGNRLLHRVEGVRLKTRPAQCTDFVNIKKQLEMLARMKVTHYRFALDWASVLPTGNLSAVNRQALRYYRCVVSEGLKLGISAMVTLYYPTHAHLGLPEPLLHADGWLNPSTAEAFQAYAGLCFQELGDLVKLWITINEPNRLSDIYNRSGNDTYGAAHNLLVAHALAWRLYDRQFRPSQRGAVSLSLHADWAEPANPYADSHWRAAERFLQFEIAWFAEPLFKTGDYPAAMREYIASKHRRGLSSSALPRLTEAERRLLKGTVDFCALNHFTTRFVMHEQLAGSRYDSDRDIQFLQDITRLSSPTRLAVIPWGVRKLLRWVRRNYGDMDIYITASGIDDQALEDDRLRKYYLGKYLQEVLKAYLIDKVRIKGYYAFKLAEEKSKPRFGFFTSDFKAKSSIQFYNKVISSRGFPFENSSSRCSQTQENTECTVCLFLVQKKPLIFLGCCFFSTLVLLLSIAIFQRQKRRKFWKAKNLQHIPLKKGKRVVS

Molecule	EC50 (absence of HSA, read-out: EC50) [nM]	EC50 [1] [nM]	potency in HEK293/BKL cells compared with MetFGF21 or corresponding analogue (in words) (absence of HSA)
S{Beta-168}-[2-[2-[[2-[2-[2-[[2-[2-[2-[[(4S)-4-carboxy-4-(13-carboxytridecanoyl-amino)butanoyl]amino]ethoxy]ethoxy]acetyl]amino]ethoxy]ethoxy]acetyl]amino]-ethylamino]-2-oxoethyl]-Ala[Gln121,Cys168]FGF21 [Compound 34]	667	4260	–
B1	11	–	–
B2	1	1	–
B3	3	4	–
B4	4	4	–
B5	1	20	–
B6	492	–	decreased potency
B7	4	–	–
B8	7	–	–
B9	22	–	–
B10	5	–	–
B11	5	–	–
B12	4	–	–
B13	416	–	–
B14	8	–	–
